Test results from article PMC4712673.
Where two headings read alike, the source gives them in different places.

Tests used:
Assay in all cases: EMSA
Cus2p WT [1] = molecular target: T1, Cus2p WT (Saccharomyces cerevisiae, UniProt P53830 1-285)
T1 sequence: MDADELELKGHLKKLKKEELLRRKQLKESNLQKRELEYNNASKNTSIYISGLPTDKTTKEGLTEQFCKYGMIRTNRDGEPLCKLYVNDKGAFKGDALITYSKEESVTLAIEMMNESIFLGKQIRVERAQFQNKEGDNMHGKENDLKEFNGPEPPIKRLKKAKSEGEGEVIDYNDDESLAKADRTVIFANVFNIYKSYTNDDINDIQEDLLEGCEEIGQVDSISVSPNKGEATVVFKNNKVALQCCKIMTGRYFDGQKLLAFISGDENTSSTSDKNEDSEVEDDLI

Cus2p Y48D = molecular target: T2, Cus2p Y48D (Saccharomyces cerevisiae, UniProt P53830 1-285, Y48D)
T2 sequence: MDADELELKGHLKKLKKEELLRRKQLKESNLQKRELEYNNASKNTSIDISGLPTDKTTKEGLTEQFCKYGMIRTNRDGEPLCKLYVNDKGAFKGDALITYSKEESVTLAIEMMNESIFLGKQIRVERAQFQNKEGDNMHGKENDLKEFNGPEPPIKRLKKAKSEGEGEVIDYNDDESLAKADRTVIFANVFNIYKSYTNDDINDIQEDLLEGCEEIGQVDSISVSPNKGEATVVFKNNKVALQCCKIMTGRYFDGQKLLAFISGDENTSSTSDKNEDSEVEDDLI

Cus2p WT [2] = molecular target: T1, Cus2p WT; remark: listed apart in the source
Cus2p WT [3] = molecular target: T1, Cus2p WT; remark: listed apart in the source

B1: stem IIc-stabilized U2 core RNA (structured_RNA)
RNA: GUAGUAUCUGUUCUUUUCAAUGUAACAACUGAAAUGACCUCAAUGAGGCUCAUUACCUUUUCAGUUGUUACAAUACACAUUUUUUGG
B1: binds (Cus2p WT [1]); binds (Cus2p Y48D).

B2: G53A U2 core RNA (structured_RNA)
RNA: GUAGUAUCUGUUCUUUUCAAUGUAACAACUGAAAUGACCUCAAUGAGGCUCAUUACCUUUUAAUUUGUUACAAUACACAUUUUUUGG
B2: binds (Cus2p WT [2]).

B3: stem IIa-stabilized U2 core RNA (structured_RNA)
RNA: GUAGUAUCUGUUCUUUGCGGUGUAACAACCGCAAUGACCUCAAUGAGGCUCAUUACCUUUUAAAUACACAUUUUUUGG
B3: binds (Cus2p WT [3]).
